# Measurements as given in publication doi:10.1101/2021.05.11.443658 (bioRxiv, 2021).
# B1: Thioredoxin-His-tagged OsbZIP47 full-length protein (natural protein, rice (Oryza sativa), UniProt Q5Z6N9 1-385, looked up)
# chain: MAAHQGMAAATAADRFCLPRMAAAAAAASQVENWGDSGVIVSSPFTDDTSTDLDDSADKHHLHALVGGGDGGDDAGEQRGADSSAVSKERRGDQKMQRRLAQNREAARKSRMRKKAYIQQLESSRSKLMHLEQELQRARQQGIFIATGGSGDHGHSIGGNGTLAFDLEYARWLDEHQRHINDLRVALNAQMSDDELCELVDAVMMHYDQVFRLKSFATKSDVFHVLSGMWMSPAERFFMWLGGFRSSELLKVLASHLEPLTDQQLMGICNLQQSSQQAEDALSQGMEALQQTLGDTLVSAAATVVSGGGGADNVTNYMGQMAIAMAKLTTLENFLRQADLLRHQTLQQMHRILTTRQAARALLVISDYFSRLRALSSLWLARPRD
# Target: the molecule itself
# Experiment: non-reducing SDS-PAGE
protein,measurement,value
B1,binding result,binds
